This is an account of results in the supplement of paper PMC9112550, “Optimization of the antimicrobial peptide Bac7 by deep mutational scanning” (BMC Biology, 2022).

The subject of the series is Escherichia coli TOP10. Nature of the series: shrunken log2 fold change of peptide-encoding DNA abundance (4.5 h post-induction vs induction); higher = less antimicrobial activity (less host growth inhibition). The conditions noted are these: time post-induction: 4.5 h; library: site-saturation at positions 5, 18, 19, 20.
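Further: peptides expressed intracellularly from a pBAD plasmid library in pooled LB shake-flask culture, induced with 0.3% L-arabinose, DNA abundance read by NGS, three biological replicates, DESeq2 with apeglm shrinkage.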

With RRIRERPPRLPRPRPRPALRPRP, the “shrunken log2 fold change” value came to 0.0887.
Next, RRIRARPPRLPRPRPRPMSDPRP: 0.56; RRIRSRPPRLPRPRPRPNIAPRP: 0.0275; RRIRDRPPRLPRPRPRPFDKPRP: -0.0665.
Next, RRIRDRPPRLPRPRPRPSEYPRP: -0.0118.
In the case of RRIRYRPPRLPRPRPRPDYEPRP it was -0.105.
As to RRIRYRPPRLPRPRPRPCCHPRP, the “shrunken log2 fold change” value is -1.36.
In the case of RRIRDRPPRLPRPRPRPETFPRP it was 0.00902; in that of RRIRIRPPRLPRPRPRPQQAPRP, 0.0151.
In the case of RRIRMRPPRLPRPRPRPRPPPRP, the “shrunken log2 fold change” value was determined as 1.55.
Turning to RRIRTRPPRLPRPRPRPPLQPRP, the “shrunken log2 fold change” value was found to be 0.369.
Next, RRIRVRPPRLPRPRPRPALGPRP: 0.423; RRIRMRPPRLPRPRPRPDKRPRP: 0.076; RRIRTRPPRLPRPRPRPLSLPRP: -0.613.
Consider RRIRQRPPRLPRPRPRPEAQPRP, for which the “shrunken log2 fold change” value was found to be 0.285.
As for RRIRERPPRLPRPRPRPMRPPRP, the “shrunken log2 fold change” value amounted to 0.772.
Next, RRIRTRPPRLPRPRPRPWRYPRP: 0.108; RRIRGRPPRLPRPRPRPEPLPRP: 0.341.
Consider RRIRARPPRLPRPRPRPLVNPRP, for which the “shrunken log2 fold change” value was found to be 0.0552.
Next, RRIRFRPPRLPRPRPRPSASPRP: 0.0552.
In the case of RRIRWRPPRLPRPRPRPTRGPRP it was 0.329; in that of RRIRNRPPRLPRPRPRPCYGPRP, -0.102; in that of RRIRKRPPRLPRPRPRPDGMPRP, -0.00135.
In the case of RRIRSRPPRLPRPRPRPDHYPRP it was -0.341; in that of RRIRMRPPRLPRPRPRPATSPRP, 0.654; in that of RRIRERPPRLPRPRPRPTYMPRP, -0.121.
With RRIRTRPPRLPRPRPRPAYDPRP, the “shrunken log2 fold change” value is -0.251.
In the case of RRIRKRPPRLPRPRPRPGMKPRP it was 0.516; in that of RRIRKRPPRLPRPRPRPVWIPRP, 0.0328; in that of RRIRNRPPRLPRPRPRPETHPRP, -0.0861.
Next, RRIRCRPPRLPRPRPRPPPSPRP: 1.61.
Next, RRIRCRPPRLPRPRPRPDRAPRP: 0.0901.
Consider RRIRWRPPRLPRPRPRPLESPRP, for which the “shrunken log2 fold change” value was determined as 0.176.
Next, RRIRFRPPRLPRPRPRPYLLPRP: -1.11; RRIRNRPPRLPRPRPRPPQNPRP: -0.0172.
In the case of RRIRDRPPRLPRPRPRPAWLPRP it was 0.266.
Consider RRIRPRPPRLPRPRPRPMSDPRP, for which the “shrunken log2 fold change” value is -0.195.
In the case of RRIRGRPPRLPRPRPRPRKIPRP it was 0.829; in that of RRIRNRPPRLPRPRPRPDNTPRP, -0.297.
Next, RRIRQRPPRLPRPRPRPNRYPRP: -0.0216; RRIRSRPPRLPRPRPRPEMRPRP: 0.84; RRIRYRPPRLPRPRPRPDAYPRP: -0.599.
Next, RRIRSRPPRLPRPRPRPLLGPRP: 0.0218.
RRIRWRPPRLPRPRPRPLMNPRP: the “shrunken log2 fold change” value is -0.0906.
Next, RRIRMRPPRLPRPRPRPRTCPRP: 0.00872.
In the case of RRIRGRPPRLPRPRPRPTILPRP it was 0.131.
Next, RRIRNRPPRLPRPRPRPIAVPRP: -0.0167.
Regarding RRIRMRPPRLPRPRPRPKTTPRP, the “shrunken log2 fold change” value is 1.09.
Next, RRIRDRPPRLPRPRPRPQIPPRP: -0.085.
Next, RRIRKRPPRLPRPRPRPCKFPRP: 0.142; RRIRFRPPRLPRPRPRPIIEPRP: -0.747; RRIRRRPPRLPRPRPRPPNIPRP: -0.0641.
For the sequence RRIRDRPPRLPRPRPRPRAIPRP, the “shrunken log2 fold change” value worked out at 0.108.
Next, RRIRNRPPRLPRPRPRPKFQPRP: -0.505; RRIRTRPPRLPRPRPRPKFEPRP: 0.0721; RRIRVRPPRLPRPRPRPDKNPRP: -0.12.
For RRIRDRPPRLPRPRPRPAGAPRP, the “shrunken log2 fold change” value worked out at 0.509.
Take RRIRCRPPRLPRPRPRPMEQPRP: the “shrunken log2 fold change” value is -0.00403.
In the case of RRIRQRPPRLPRPRPRPDDEPRP it was -0.0396.
In the case of RRIRKRPPRLPRPRPRPYDWPRP it was -0.0468; in that of RRIRWRPPRLPRPRPRPYWLPRP, -0.0807; in that of RRIRYRPPRLPRPRPRPPQCPRP, -0.32.
Next, RRIRWRPPRLPRPRPRPARWPRP: 1.07; RRIRERPPRLPRPRPRPVGNPRP: -0.191; RRIRCRPPRLPRPRPRPGWHPRP: 0.269.
As to RRIRWRPPRLPRPRPRPCARPRP, the “shrunken log2 fold change” value was 0.0277.
In the case of RRIRCRPPRLPRPRPRPDRVPRP it was -0.112; in that of RRIRHRPPRLPRPRPRPDMLPRP, -0.481.
In the case of RRIRGRPPRLPRPRPRPDYKPRP it was -0.0972; in that of RRIRCRPPRLPRPRPRPACFPRP, 0.0497.
In the case of RRIRFRPPRLPRPRPRPRWPPRP it was 0.327.
As for RRIRVRPPRLPRPRPRPVNRPRP, the “shrunken log2 fold change” value is -0.142.
In the case of RRIRTRPPRLPRPRPRPEKVPRP it was -0.292.
In the case of RRIRMRPPRLPRPRPRPTMRPRP it was 1.4; in that of RRIRHRPPRLPRPRPRPAGEPRP, -0.0717.
In the case of RRIRWRPPRLPRPRPRPQSDPRP it was -0.239; in that of RRIRHRPPRLPRPRPRPCRHPRP, -0.204; in that of RRIRNRPPRLPRPRPRPTCEPRP, -0.0176.
Take RRIRKRPPRLPRPRPRPDALPRP: the “shrunken log2 fold change” value came to 0.132.
On to RRIRYRPPRLPRPRPRPQAPPRP, for which the “shrunken log2 fold change” value is -0.0309.
In the case of RRIRVRPPRLPRPRPRPTCVPRP it was -0.0916; in that of RRIRTRPPRLPRPRPRPHWCPRP, -0.00994; in that of RRIRKRPPRLPRPRPRPDMMPRP, 1.43.
In the case of RRIRTRPPRLPRPRPRPNLIPRP, the “shrunken log2 fold change” value is -0.408.
In the case of RRIRKRPPRLPRPRPRPQMVPRP it was -0.0031; in that of RRIRYRPPRLPRPRPRPCHCPRP, -0.0269; in that of RRIRKRPPRLPRPRPRPHHIPRP, -0.165.
Regarding RRIRDRPPRLPRPRPRPQAHPRP, the “shrunken log2 fold change” value came to 0.0994.
As to RRIRCRPPRLPRPRPRPSLTPRP, the “shrunken log2 fold change” value was -0.538.
Next, RRIRTRPPRLPRPRPRPFIKPRP: -0.57.
On to RRIRLRPPRLPRPRPRPKWPPRP, for which the “shrunken log2 fold change” value turned out to be 0.279.
